According to patent US20160169910A1:

What was measured:
[1] = biological target: suPAR in human plasma from FSGS patients (human) (UniProt Q03405); test: immunodepletion of FSGS plasma, remaining suPAR measured by R&D ELISA
[2] = biological target: protein G-agarose beads (UniProt P06654); test: mock depletion of FSGS plasma with protein G-agarose beads only, R&D ELISA

Sequence of suPAR in human plasma from FSGS patients (Q03405 23-305 limits assumed): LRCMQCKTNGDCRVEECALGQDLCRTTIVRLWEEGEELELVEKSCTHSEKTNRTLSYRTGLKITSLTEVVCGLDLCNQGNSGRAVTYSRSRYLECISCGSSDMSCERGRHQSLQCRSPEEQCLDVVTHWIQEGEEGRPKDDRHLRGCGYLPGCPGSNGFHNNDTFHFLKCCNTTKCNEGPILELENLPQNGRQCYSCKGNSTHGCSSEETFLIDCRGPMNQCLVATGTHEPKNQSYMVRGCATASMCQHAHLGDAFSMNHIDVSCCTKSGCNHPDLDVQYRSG
Sequence of suPAR in human plasma from FSGS patients (human) (Q03405 23-305 limits assumed): as above

percent of suPAR removed from human plasma [1]	percent lowering of suPAR level in plasma [2]	Substance
> 99%	–	mouse monoclonal anti-suPAR antibody ATN615
–	20 to 50%	suPAR in human plasma from FSGS patients (from UniProt Q03405 23-305) (receptor)
